The record followed here is publication PMC12416549 (2024).

The target of the experiment is T1, TNFR1 (Homo sapiens, UniProt P19438).
T1 chain: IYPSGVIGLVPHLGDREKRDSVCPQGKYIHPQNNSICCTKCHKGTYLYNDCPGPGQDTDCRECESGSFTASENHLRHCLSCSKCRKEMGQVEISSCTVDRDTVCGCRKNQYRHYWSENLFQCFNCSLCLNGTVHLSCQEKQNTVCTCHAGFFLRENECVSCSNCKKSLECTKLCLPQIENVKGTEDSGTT
Nature of the experiment: yeast display SC50.

B1: R14G (designed binder)
chain: MTLQELLREEALRGAEAEAFRYALELLAEKFPEQKEYLLDLAEEIESQIRSLSGVDVEDVRKFLDKEWAWVKELLAEHPAELAEVEAARAARLAELRAEVEAKVAA
Consider B1, for which the “apparent Kd (screen)” value amounted to 0.539 nM.

B2: L82N (designed binder)
chain: MTLQELLREEALRRAEAEAFRYALELLAEKFPEQKEYLLDLAEEIESQIRSLSGVDVEDVRKFLDKEWAWVKELLAEHPAENAEVEAARAARLAELRAEVEAKVAA
Consider B2, for which the “apparent Kd (screen)” value is 1.69 nM.

B3: F63C (designed binder)
chain: MTLQELLREEALRRAEAEAFRYALELLAEKFPEQKEYLLDLAEEIESQIRSLSGVDVEDVRKCLDKEWAWVKELLAEHPAELAEVEAARAARLAELRAEVEAKVAA
As to B3, the “apparent Kd (screen)” value is 6.43 nM.

B4: A76C (designed binder)
chain: MTLQELLREEALRRAEAEAFRYALELLAEKFPEQKEYLLDLAEEIESQIRSLSGVDVEDVRKFLDKEWAWVKELLCEHPAELAEVEAARAARLAELRAEVEAKVAA
Consider B4, for which the “apparent Kd (screen)” value was determined as 0.539 nM.

B5: Y22K (designed binder)
chain: MTLQELLREEALRRAEAEAFRKALELLAEKFPEQKEYLLDLAEEIESQIRSLSGVDVEDVRKFLDKEWAWVKELLAEHPAELAEVEAARAARLAELRAEVEAKVAA
On to B5, for which the “apparent Kd (screen)” value is 0.49 nM.

B6: Y22N (designed binder)
chain: MTLQELLREEALRRAEAEAFRNALELLAEKFPEQKEYLLDLAEEIESQIRSLSGVDVEDVRKFLDKEWAWVKELLAEHPAELAEVEAARAARLAELRAEVEAKVAA
For the molecule B6, the “apparent Kd (screen)” value turned out to be 0.593 nM.

B7: A88F (designed binder)
chain: MTLQELLREEALRRAEAEAFRYALELLAEKFPEQKEYLLDLAEEIESQIRSLSGVDVEDVRKFLDKEWAWVKELLAEHPAELAEVEAFRAARLAELRAEVEAKVAA
Regarding B7, the “apparent Kd (screen)” value was determined as 0.718 nM.

B8: R13G (designed binder)
chain: MTLQELLREEALGRAEAEAFRYALELLAEKFPEQKEYLLDLAEEIESQIRSLSGVDVEDVRKFLDKEWAWVKELLAEHPAELAEVEAARAARLAELRAEVEAKVAA
With B8, the “apparent Kd (screen)” value was 0.252 nM.

B9: A76E (designed binder)
chain: MTLQELLREEALRRAEAEAFRYALELLAEKFPEQKEYLLDLAEEIESQIRSLSGVDVEDVRKFLDKEWAWVKELLEEHPAELAEVEAARAARLAELRAEVEAKVAA
For B9, the “apparent Kd (screen)” value was found to be 0.593 nM.

B10: E58N (designed binder)
chain: MTLQELLREEALRRAEAEAFRYALELLAEKFPEQKEYLLDLAEEIESQIRSLSGVDVNDVRKFLDKEWAWVKELLAEHPAELAEVEAARAARLAELRAEVEAKVAA
Consider B10, for which the “apparent Kd (screen)” value was determined as 0.49 nM.

B11: E29K (designed binder)
chain: MTLQELLREEALRRAEAEAFRYALELLAKKFPEQKEYLLDLAEEIESQIRSLSGVDVEDVRKFLDKEWAWVKELLAEHPAELAEVEAARAARLAELRAEVEAKVAA
For B11, the “apparent Kd (screen)” value came out at 0.49 nM.

B12: E9I (designed binder)
chain: MTLQELLRIEALRRAEAEAFRYALELLAEKFPEQKEYLLDLAEEIESQIRSLSGVDVEDVRKFLDKEWAWVKELLAEHPAELAEVEAARAARLAELRAEVEAKVAA
With B12, the “apparent Kd (screen)” value was 0.79 nM.

B13: E58I (designed binder)
chain: MTLQELLREEALRRAEAEAFRYALELLAEKFPEQKEYLLDLAEEIESQIRSLSGVDVIDVRKFLDKEWAWVKELLAEHPAELAEVEAARAARLAELRAEVEAKVAA
Turning to B13, the “apparent Kd (screen)” value was determined as 0.593 nM.

B14: A106T (designed binder)
chain: MTLQELLREEALRRAEAEAFRYALELLAEKFPEQKEYLLDLAEEIESQIRSLSGVDVEDVRKFLDKEWAWVKELLAEHPAELAEVEAARAARLAELRAEVEAKVAT
B14: the “apparent Kd (screen)” value is 1.05 nM.

B15: A28D (designed binder)
chain: MTLQELLREEALRRAEAEAFRYALELLDEKFPEQKEYLLDLAEEIESQIRSLSGVDVEDVRKFLDKEWAWVKELLAEHPAELAEVEAARAARLAELRAEVEAKVAA
As to B15, the “apparent Kd (screen)” value was found to be 18.3 nM.

B16: E84L (designed binder)
chain: MTLQELLREEALRRAEAEAFRYALELLAEKFPEQKEYLLDLAEEIESQIRSLSGVDVEDVRKFLDKEWAWVKELLAEHPAELALVEAARAARLAELRAEVEAKVAA
As for B16, the “apparent Kd (screen)” value is 0.49 nM.

B17: E44M (designed binder)
chain: MTLQELLREEALRRAEAEAFRYALELLAEKFPEQKEYLLDLAEMIESQIRSLSGVDVEDVRKFLDKEWAWVKELLAEHPAELAEVEAARAARLAELRAEVEAKVAA
In the case of B17, the “apparent Kd (screen)” value worked out at 1.69 nM.

B18: A19T (designed binder)
chain: MTLQELLREEALRRAEAETFRYALELLAEKFPEQKEYLLDLAEEIESQIRSLSGVDVEDVRKFLDKEWAWVKELLAEHPAELAEVEAARAARLAELRAEVEAKVAA
For the molecule B18, the “apparent Kd (screen)” value is 0.718 nM.

B19: I49D (designed binder)
chain: MTLQELLREEALRRAEAEAFRYALELLAEKFPEQKEYLLDLAEEIESQDRSLSGVDVEDVRKFLDKEWAWVKELLAEHPAELAEVEAARAARLAELRAEVEAKVAA
Take B19: the “apparent Kd (screen)” value was 12.5 nM.

B20: V55A (designed binder)
chain: MTLQELLREEALRRAEAEAFRYALELLAEKFPEQKEYLLDLAEEIESQIRSLSGADVEDVRKFLDKEWAWVKELLAEHPAELAEVEAARAARLAELRAEVEAKVAA
B20: the “apparent Kd (screen)” value was found to be 1.16 nM.

B21: A11D (designed binder)
chain: MTLQELLREEDLRRAEAEAFRYALELLAEKFPEQKEYLLDLAEEIESQIRSLSGVDVEDVRKFLDKEWAWVKELLAEHPAELAEVEAARAARLAELRAEVEAKVAA
On to B21, for which the “apparent Kd (screen)” value came out at 0.593 nM.

B22: G54M (designed binder)
chain: MTLQELLREEALRRAEAEAFRYALELLAEKFPEQKEYLLDLAEEIESQIRSLSMVDVEDVRKFLDKEWAWVKELLAEHPAELAEVEAARAARLAELRAEVEAKVAA
For the molecule B22, the “apparent Kd (screen)” value worked out at 12.5 nM.

B23: E101P (designed binder)
chain: MTLQELLREEALRRAEAEAFRYALELLAEKFPEQKEYLLDLAEEIESQIRSLSGVDVEDVRKFLDKEWAWVKELLAEHPAELAEVEAARAARLAELRAEVPAKVAA
B23: the “apparent Kd (screen)” value worked out at 0.446 nM.

B24: S53Q (designed binder)
chain: MTLQELLREEALRRAEAEAFRYALELLAEKFPEQKEYLLDLAEEIESQIRSLQGVDVEDVRKFLDKEWAWVKELLAEHPAELAEVEAARAARLAELRAEVEAKVAA
B24: the “apparent Kd (screen)” value turned out to be 0.653 nM.

B25: F31M (designed binder)
chain: MTLQELLREEALRRAEAEAFRYALELLAEKMPEQKEYLLDLAEEIESQIRSLSGVDVEDVRKFLDKEWAWVKELLAEHPAELAEVEAARAARLAELRAEVEAKVAA
Consider B25, for which the “apparent Kd (screen)” value was 0.539 nM.
